In one experiment the target is HLA-B*08:02. In words: IEDB peptide-MHC binding, purified MHC/competitive/fluorescence; filed as Kd, often an IC50 or EC50 that approximates it; ≥ and ≤ were set here for values at or beyond the usual limits of such assays.
Experiment [1] concerns the target HLA-A*01:01. Described as above.
Another experiment deals with HLA-A*30:01. The description is as above.
Another experiment addresses HLA-B*15:17. Described as above. To be noted: source organism: Human immunodeficiency virus 1.
Experiment [2] deals with HLA-A*11:01. Described as above. The conditions noted are these: source organism: Human immunodeficiency virus 1.
The target of a further experiment is HLA-B*39:01. The experiment is described as above.
The target of experiment [3] is HLA-A*02:01. The experiment is described as above.
Another experiment addresses HLA-B*40:01. The experiment is described as above. The conditions noted are these: source organism: Corynebacterium glutamicum R.
The target of the next experiment is HLA-B*46:01. Described as above.
Another experiment deals with HLA-B*27:05. The experiment is described as above. The conditions noted are these: source organism: Corynebacterium glutamicum R.
In experiment [4] the target is HLA-A*03:01. The experiment is described as above. To be noted: source organism: Corynebacterium glutamicum R.
Another experiment concerns the target HLA-A*31:01. Described as above. The conditions noted are these: source organism: Corynebacterium glutamicum R.
Another experiment concerns the target HLA-B*07:02. Described as above. The conditions noted are these: source organism: Corynebacterium glutamicum R.
The target in the next experiment is HLA-B*18:01. Described as above.
For another experiment, the target named is HLA-A*69:01. The experiment is described as above.
The target of the next experiment is HLA-B*35:01. Described as above. To be noted: source organism: Corynebacterium glutamicum R.
In the next experiment the target is HLA-B*08:01. The description is as above. To be noted: source organism: Corynebacterium glutamicum R.
The target in experiment [5] is HLA-B*15:01. Described as above.
A further experiment addresses HLA-B*58:01. The experiment is described as above. The conditions noted are these: source organism: Corynebacterium glutamicum R.
Experiment [6] has as its target HLA-A*02:01. In words: IEDB peptide-MHC binding, purified MHC/competitive/fluorescence; ≥ and ≤ were set here for values at or beyond the usual limits of such assays. To be noted: source organism: Zaire ebolavirus.
For experiment [7], the target named is HLA-A*01:01. The experiment is described as above. To be noted: source organism: Zaire ebolavirus.
Experiment [8] concerns the target HLA-A*11:01. Described as above. To be noted: source organism: Zaire ebolavirus.
The target in experiment [9] is HLA-B*15:01. The experiment is described as above. The conditions noted are these: source organism: Zaire ebolavirus.
Another experiment has as its target HLA-A*02:03. In words: IEDB peptide-MHC binding, purified MHC/direct/fluorescence; filed as Kd, often an IC50 or EC50 that approximates it; ≥ and ≤ were set here for values at or beyond the usual limits of such assays. The conditions noted are these: source organism: Zaire ebolavirus.
The target in a further experiment is HLA-A*68:02. Described as above. To be noted: source organism: Zaire ebolavirus.
Experiment [10] deals with HLA-A*01:01. The description is as above. The conditions noted are these: source organism: Zaire ebolavirus.
Experiment [11] addresses HLA-A*03:01. The experiment is described as above. The conditions noted are these: source organism: Zaire ebolavirus.
Another experiment addresses HLA-A*29:02. The description is as above. The conditions noted are these: source organism: Zaire ebolavirus.
For a further experiment, the target named is HLA-A*02:19. Described as above. The conditions noted are these: source organism: Zaire ebolavirus.
The target in a further experiment is HLA-A*24:03. Described as above. The conditions noted are these: source organism: Zaire ebolavirus.
The next experiment concerns the target HLA-A*02:12. The description is as above. The conditions noted are these: source organism: Zaire ebolavirus.
In the next experiment the target is HLA-A*02:11. The experiment is described as above. To be noted: source organism: Zaire ebolavirus.
The next experiment deals with HLA-A*23:01. Described as above. The conditions noted are these: source organism: Zaire ebolavirus.
In the next experiment the target is HLA-A*02:16. Described as above. To be noted: source organism: Zaire ebolavirus.
The next experiment deals with HLA-B*57:01. In words: IEDB peptide-MHC binding, purified MHC/competitive/fluorescence; filed as Kd, often an IC50 or EC50 that approximates it; ≥ and ≤ were set here for values at or beyond the usual limits of such assays. To be noted: source organism: Zaire ebolavirus.
The next experiment deals with HLA-B*27:03. The description is as above. The conditions noted are these: source organism: Zaire ebolavirus.
Another experiment addresses HLA-B*51:01. Described as above. To be noted: source organism: Zaire ebolavirus.
Another experiment addresses HLA-A*26:01. Described as above. To be noted: source organism: Zaire ebolavirus.
For the next experiment, the target named is HLA-C*12:03. In words: IEDB peptide-MHC binding, purified MHC/direct/fluorescence; filed as Kd, often an IC50 or EC50 that approximates it; ≥ and ≤ were set here for values at or beyond the usual limits of such assays. To be noted: source organism: Bacillus anthracis str. A0488.
The next experiment addresses HLA-C*14:02. The description is as above. To be noted: source organism: Bacillus anthracis str. A0488.
The target in a further experiment is HLA-C*15:02. Described as above. To be noted: source organism: Bacillus anthracis str. A0488.
A further experiment deals with HLA-B*15:02. In words: IEDB peptide-MHC binding, purified MHC/competitive/fluorescence; filed as Kd, often an IC50 or EC50 that approximates it; ≥ and ≤ were set here for values at or beyond the usual limits of such assays.
Where [12] appears, read: source organism: Human immunodeficiency virus 1.
[13] abbreviates: source organism: Corynebacterium glutamicum R.
Where [14] appears, read: source organism: Zaire ebolavirus.

A value given as a limit tells only on which side of the number the result lay.

As to GTEELKSLY, the Kd – broadly, the concentration at which binding is half-saturated – was at least 20 µM with HLA-B*08:02 (setting [12]); 0.0163 µM with HLA-A*01:01 [1] (setting [12]); at least 20 µM in the experiment with HLA-A*30:01 (setting [12]); 0.0595 µM with HLA-B*15:17; at least 20 µM with HLA-A*11:01 [2]; at least 20 µM in the experiment with HLA-B*39:01 (setting [12]).
In the case of RYDDGQSIY, the dissociation constant Kd is at least 20 µM with HLA-A*02:01 [3] (setting [13]); at least 20 µM in the experiment with HLA-B*08:02 (setting [13]); 19.7 µM with HLA-A*01:01 [1] (setting [13]); at least 20 µM with HLA-B*40:01; at least 20 µM with HLA-B*46:01 (setting [13]); at least 20 µM with HLA-B*27:05. The dissociation constant Kd with HLA-A*03:01 [4], in the experiment with HLA-A*30:01 (setting [13]), with HLA-A*31:01, with HLA-B*07:02, in the experiment with HLA-B*18:01 (setting [13]) and in the experiment with HLA-A*69:01 (setting [13]) was at least 20 µM each time. Also, the Kd in the experiment with HLA-B*35:01, with HLA-B*08:01, in the experiment with HLA-B*15:01 [5] (setting [13]) and with HLA-B*58:01 was at least 20 µM each time.
As to ATEDPSSGY, the 50% inhibitory concentration (IC50) (as a rule, the concentration at which inhibition is half-maximal) was at least 379 µM in the experiment with HLA-A*02:01 [6], at least 154 µM with HLA-A*01:01 [7], 49.6 µM in the experiment with HLA-A*11:01 [8] and at least 97.2 µM with HLA-B*15:01 [9]. Also, the Kd is at least 20 µM with HLA-A*02:03; at least 20 µM with HLA-A*68:02; 0.438 µM in the experiment with HLA-A*01:01 [10]; at least 20 µM in the experiment with HLA-A*03:01 [11]; at least 20 µM with HLA-A*29:02; at least 20 µM in the experiment with HLA-A*02:19. In addition, the Kd with HLA-A*24:03, in the experiment with HLA-A*02:12, in the experiment with HLA-A*02:11, in the experiment with HLA-A*23:01, with HLA-A*02:16 and with HLA-A*02:01 [3] (setting [14]) was at least 20 µM each time. Besides, the dissociation constant (Kd) with HLA-B*57:01, with HLA-B*46:01 (setting [14]), with HLA-B*27:03, with HLA-B*18:01 (setting [14]), in the experiment with HLA-A*69:01 (setting [14]) and with HLA-B*51:01 was at least 20 µM throughout. The Kd in the experiment with HLA-B*39:01 (setting [14]), in the experiment with HLA-B*15:01 [5] (setting [14]) and in the experiment with HLA-A*26:01 was at least 20 µM throughout.
Regarding YLARYSGSM, the Kd in the experiment with HLA-C*12:03 was 0.3 µM; with HLA-C*14:02, 0.03 µM; with HLA-C*15:02 it was at least 20 µM; with HLA-B*15:02 (source organism: Bacillus anthracis str. A0488) it was 0.0123 µM.
Take YIRGVCSAF: in the experiment with HLA-B*15:02 (source organism: Vibrio parahaemolyticus RIMD 2210633), the Kd worked out at 0.0807 µM.

(Values after the Immune Epitope Database (IEDB).)
